Laboratory results reported in US20070014736A1, “Methods of delivering corticotroph-derived glycoprotein hormone” (priority 2005, published 2007).

Experiments:
TSHR = experiment: Binding of 125I-CGH and 125I-TSH to BHK cells expressing the TSHR; parameters: species or system murine or human; settings: increasing amounts of unlabeled protein
Procedure: BHK cells expressing murine or human TSHRs were cultured in Dulbecco's Modified Eagle's Medium [DMEM (high glucose)] containing 5% fetal bovine serum, 1% Glutamax, 1% sodium pyruvate, 250 nM methotrexate, and Geneticin ( 1/100). […] Plates of cells were placed on ice and washed twice with 1.0-2.0 ml of ice-cold PBS. […] Specific binding was determined in the presence (nonspecific binding) and absence (total binding) of unlabeled rhCGH (25.0 μg/ml) or TSH (10 μg/ml). Binding reactions were terminated by removing the binding medium and the cell monolayers were washed three times with 1.0-2.0 ml of ice-cold PBS containing 1.0 mg/ml BSA and twice with 1.0-2.0 ml of ice cold albumin-free PBS. Cells were solubilized in 1.0 ml of 1.0N NaOH for 10 min at room temperature and cell-associated radioactivity was determined in a gamma counter. The measured radioactivity was normalized to cell number that was determined on plates of cells cultured in parallel. Binding data were analyzed by non-linear regression using Prizm 3.0 (GraphPad Software, San Diego, Calif.).

thymus = test system: thymus; parameters: species or system mice; settings: mouse, in vivo
Text: Since the receptor for CGH, TSH-R, is expressed by the adrenal glands, there was concern that the anti-inflammatory effects observed might be an indirect effect of increasing endogenous corticosteroid production in CGH-treated mice. One well-established side effect of increasing either exogenous or endogenous corticosteroid levels is substantial atrophy of the thymus, as the developing T cells are induced to undergo apoptosis. Therefore, the thymuses of the CGH and Dex-treated mice in the DTH experiments were analyzed. […] Thus, CGH seems to be mediating its anti-inflammatory effects in a manner distinct from that of exgenous glucocorticoids like Dex.

[1] = test system: neutrophil infiltration in the ears; experiment: Neutrophil (Gr-1) histomorphometry of ears in DTH experiment #1; format: in vivo, mice
Procedure: Ears from mice in DTH experiment #1 were analyzed by immunohistochemistry to assess which cell types were most affected by CGH treatment. Ears were fixed in Zinc/Tris buffer (2.3 mM calcium acetate/31.6 mM zinc acetate/36.7 mM zinc chloride in 0.1M Tris-HCL buffer, pH 7.4) for 24 hours at room temperature and stained with antibodies specific for CD4, CD8, CD11c, and Gr-1 (neutrophils). […] Ears were stained using a TechMate 500 autoimmunostainer (Biotech/Ventana) MIP protocol with some modifications. […] This step was followed, after a wash, by biotinylated rabbit anti-rat IgG secondary antibody (Dako, used at 10 ug/ml in PBS with 2% normal rabbit serum and 2% nonfat dry milk) for 45 min. The sections were then washed and treated with HP Block (1.5% H2O2 in 50% methanol) 3 times, 7 min each, followed by 25 min in avidin-biotin complex, 3 times of 4 min each in DAB (Diaminobenzidine), then with Methyl green for 10 min.
From this staining procedure, there was a clear reduction in the number of neutrophils infiltrating the ears of those mice treated with CGH or Dex, compared to the PBS-treated controls. Histomorphometry was performed to obtain the average pixel density of neutrophils per unit length (1 mm) present in the ear samples. Despite a fair amount of variability among each group, there was a significant reduction in neutrophil staining in the Dex and low dose CGH groups, as well as a nearly significant (p=0.0507) reduction in the high dose CGH group (see TABLE 5, p values).

[2] = 0.2 mg/kg CGH i.p. at challenge (day 7)
[3] = 2 mg/kg CGH i.p. at challenge (day 7)

B1: CGH: heterodimeric protein hormone comprised of alpha subunit GPHA2 and beta subunit GPHB5, recombinantly produced in CHO cells (protein)
chain 1: QEAVIPGCHLHPFNVTVRSDRQGTCQGSHVAQACVGHCESSAFPSRYSVLVASGYRHNITSVSQCCTISGLKKVKVQLQCVGSRREELEIFTARACQCDMCRLSRY
chain 2: ASSGNLRTFVGCAVREFTFLAKKPGCRGLRITTDACWGRCETWEKPILEPPYIEAHHRVCTYNETKQVTVKLPNCAPGVDPFYTYPVAIRCDCGACSTATTECETI
reduction of the amount of 125I-CGH bound by unlabeled competitor (TSHR): reduced the amount of ^125I-CGH bound
relative proportion of each thymocyte subset vs PBS-treated group (thymus): not significantly different
Pixel density: Neutrophils, left ear (PBS) [1, 2]: 544 +/− 1044
Pixel density: Neutrophils, right ear (OVA) [1, 2]: 5605 +/− 3725
Pixel density: Neutrophils, left ear (PBS) [1, 3]: 273 +/− 399
Pixel density: Neutrophils, right ear (OVA) [1, 3]: 5535 +/− 5331
